According to patent US8084228B2, “Nogo-B receptor antagonists” (Yale University, priority 2006, dated 2011):

Columns and labels:
NgBR [1] = target: T1, NgBR (Homo sapiens, UniProt Q96E22); test: AP fusion protein binding to CHO cells expressing NgBR; design: an isolated cDNA encoding NgBR is 2,636 base pairs encoding an open reading frame of 293 amino acids; expressed in transfected cells; conditions: increasing concentrations of purified Am-Nogo-B
T1 sequence (Q96E22 1-293): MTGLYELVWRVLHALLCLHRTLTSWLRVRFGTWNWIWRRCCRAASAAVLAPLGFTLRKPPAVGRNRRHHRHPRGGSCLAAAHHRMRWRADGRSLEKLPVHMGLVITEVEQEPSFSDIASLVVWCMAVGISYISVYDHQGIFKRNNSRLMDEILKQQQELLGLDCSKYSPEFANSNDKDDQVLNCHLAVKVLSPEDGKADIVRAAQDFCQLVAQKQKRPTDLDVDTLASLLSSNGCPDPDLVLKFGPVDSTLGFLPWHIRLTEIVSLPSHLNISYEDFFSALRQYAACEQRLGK
Description: (§1) To detect AP-Am-Nogo-B binding, cultures were washed with Hanks' balanced salt solution (HBSS) containing 20 mM HEPES, pH 7.5, and 1 mg/mL BSA (HBH). The plates were then incubated with AP-Am-Nogo-B in DMEM containing 20 mM Hepes, pH 7.5, and 1 mg/mL BSA for 2 hours at 4° C. The bound AP-Am-Nogo-B was detected by using the Blue Substrate kit (Vector Laboratories). The blue staining was examined by using the ODYSSEY Infrared Imaging System (Li-Cor, Lincoln, Nebr.) and confirmed by microscopy. Alternatively, the bound AP-Am-Nogo-B was extracted with Triton X-100, and AP activity was colorimetrically quantified by using p-nitrophenyl phosphate (Sigma) as substrate after heat inactivation of endogenous AP. Non-specific binding was determined by measuring binding in the presence of a 100-fold molar excess of recombinant Am-Nogo-B lacking the AP fusion protein. Specific binding was determined by subtracting the non-specific binding from total binding. For determination of apparent Kd, the binding of AP-Am-Nogo-B was measured in triplicate as described above and the Kd value was quantified by using the Scatchard plot program of GraphPad PRISM (one-site binding, linear regression) using the ratio of bound ligand to free ligand as the y axis and bound ligand (pM) as the x axis.
A recombinant AP-Am-Nogo-B fusion protein was used to screen a cDNA expression library from human heart (500,000 independent clones) transfected into COS or CHO cells using Lipofectamine 2000 (Invitrogen). COS-7 cells were cultured in high-glucose DMEM with 10% FBS. CHO cells were cultured in MEM-α with 5% FBS.

A549 cells [2] = test: Tumors of A549 cells engineered to secrete Am-Nogo-B in immunodeficient mice; assay type: in vivo
HUVEC [3] = test: Tube formation of HUVEC in 3-D collagen cultures (total network length); assay type: cell-based, human; conditions: Am-Nogo-B 80 nM, 1-2 days
Description: HUVEC were resuspended (final concentration of 1×10^6) in a mixture containing rat tail type I collagen (1.5 mg/mL) 1/10 volume of 10×M199 and 1 M Hepes, neutralized with NaOH. Droplets (0.1 mL each) of the cell/collagen mixture were placed in cell culture dishes and allowed to polymerize for 15 minutes at 37° C. Growth medium containing either vehicle or agonist was then added to each well. HUVEC were allowed to form tube-like structures for 1-2 days. To evaluate tube formation in 3-D cultures, cells were photographed using the program OPENLAB (Improvision) and total-network length, defined as an elongation of cell into tube-like structures typically seen in 3-D cultures, was quantified in five fields for each replicate per experiment by using the measurement tools provided with OPENLAB.

[4] = system: CHO cells expressing NgBR; test: Chemotaxis of CHO cells and CHO cells expressing NgBR in a Boyden chamber; assay type: cell-based; conditions: CHO cells versus CHO cells expressing NgBR
Description: (§2) Cell migration was examined in modified Boyden chambers using 10 nM each of purified recombinant AP, AP fusion of Nogo-66 (AP-Nogo-66) or Am-Nogo-B. The transwell inserts (Costar transwell inserts; Corning) were coated with a solution of 0.1% gelatin (Sigma) in PBS at 4° C. overnight and then air-dried. VEGF at 50 ng/mL (1.1 nM) or recombinant Am-Nogo-B at various concentrations dissolved in medium 199 containing 0.1% BSA was added in the bottom chamber of the Boyden apparatus. HUVEC (200,000 cells) suspended in a 100 μL aliquot of medium 199 containing 0.1% BSA was added to the upper chamber. After 5 hours incubation, cells on both sides of the membrane were fixed and stained with a Diff-Quik staining kit (Baxter Healthcare, Miami, Fla.). The average number of cells from five randomly chosen high-power (×400) fields on the lower side of the membrane was counted.
Using the method described above, CHO cells and CHO cells expressing NgBR were placed into a Boyden chamber and the chemotactic response to soluble Am-Nogo-B was examined.

A549 cells [5] = test: Growth in culture of A549 cells engineered to secrete Am-Nogo-B; assay type: cell-based, human; conditions: A549 cells secreting Am-Nogo-B versus vector control
Description: Human A549 cells were stably transfected with vector alone (control) or a vector encoding a secreted form of Am-Nogo-B. The production of Am-Nogo-B and the effects on A549 cell growth in culture were examined.

NgBR [6] = target: T1, NgBR; test: AP fusion protein binding to COS cells transfected with the isolated NgBR cDNA; design: an isolated cDNA encoding NgBR is 2,636 base pairs encoding an open reading frame of 293 amino acids; expressed in transfected cells; host or cells: COS-7 (A4); conditions: COS cells (FIG. 6)
Description: as §1
For expression cloning of Am-Nogo-B receptor, pools of 5,000 arrayed clones from a human heart cDNA library (OriGene Technologies, Rockville, Md.) were transfected into COS-7 cells, and AP-Am-Nogo-B binding was assessed by using AP versus AP-Am-Nogo-B binding and detection of the AP product by near-infrared cell imaging (Li-Cor, Lincoln, Nebr.) or AP activity assays.
Single NgBR cDNA clones were isolated by sib selection and sequenced. […] The HA-tagged NgBR was immunoisolated with anti-HA immunobeads (Roche, Indianapolis, Ind.) and associated proteins analyzed by Western blotting. For the Western blots, expression of NgBR-HA was detected by using anti-HA (Roche) and NgBR (Imgenex), respectively, and beta-actin (Sigma) or Hsp90 (BD Biosciences-Pharmingen) was used to control for loading.

NgBR-HA = target: T2, NgBR-HA (Homo sapiens, UniProt Q96E22); test: Immunoisolation of NgBR-HA from CHO cell extracts incubated with purified Am-Nogo-B, Western blot; assay type: binding; conditions: lysates of vector or NgBR-HA-transfected CHO cells, 25 μg Am-Nogo-B-myc
T2 construct: CHO cells stably expressing full-length NgBR with a C-terminal HA tag (CHO-NgBR-HA); expressed in transfected cells; host or cells: CHO
T2 sequence (Q96E22 1-293): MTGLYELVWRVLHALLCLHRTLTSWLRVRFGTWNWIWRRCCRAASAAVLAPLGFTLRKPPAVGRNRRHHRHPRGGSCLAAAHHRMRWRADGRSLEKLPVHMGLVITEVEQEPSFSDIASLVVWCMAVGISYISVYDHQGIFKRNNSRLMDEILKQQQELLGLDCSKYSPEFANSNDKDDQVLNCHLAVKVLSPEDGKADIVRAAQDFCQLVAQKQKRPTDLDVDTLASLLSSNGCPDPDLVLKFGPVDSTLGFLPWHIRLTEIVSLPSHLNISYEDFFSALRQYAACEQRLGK
Description: Single NgBR cDNA clones were isolated by sib selection and sequenced. A NgBR-HA was created in pIRESneo vector (BD, Palo Alto, Calif.), with the HA tag at the carboxy terminus. To access the physical interaction of NgBR with Am-Nogo-B, 50 μg of solubilized extracts of CHO cells expressing control vector (pIRESneo) or NgBR-HA was incubated with 25 μg of purified Am-Nogo-B or buffer for 2 hours at room temperature. The HA-tagged NgBR was immunoisolated with anti-HA immunobeads (Roche, Indianapolis, Ind.) and associated proteins analyzed by Western blotting. For the Western blots, expression of NgBR-HA was detected by using anti-HA (Roche) and NgBR (Imgenex), respectively, and beta-actin (Sigma) or Hsp90 (BD Biosciences-Pharmingen) was used to control for loading.

HUVEC [7] = test: HUVEC migration in modified Boyden chambers; assay type: cell-based, human; conditions: recombinant Am-Nogo-B at various concentrations, 5 hours; similar in magnitude to 1.1 nM VEGF
Description: The migratory response of human umbilical vein endothelial cells (HUVEC) in response to a gradient of recombinant, purified alkaline phosphatase (AP) fusion protein expressing Am-Nogo-B or a recombinant purified Am-Nogo-B was examined. HUVEC were cultured in M199 with 20% FBS and endothelial cell growth supplement (ECGS).
as §2

[8] = A549 tumors expressing Am-Nogo-B

B1: Am-Nogo-B: Residues 1-200 of Nogo-B, the amino terminus; recombinant, purified, with Myc-His tag (protein)
chain: MEDLDQSPLVSSSDSPPRPQPAFKYQFVREPEDEEEEEEEEEEDEDEDLEELEVLERKPAAGLSAAPVPTAPAAGAPLMDFGNDFVPPAPRGPLPAAPPVAPERQPSWDPSPVSSTVPAPSPLSAAAVSPSKLPEDDEPPARPPPPPPASVSPQAEPVWTPPAPAPAAPPSTPAAPKRRGSSGSVVVDLLYWRDIKKTGV
modifications: left off: small tags and cut ends
notes: Residues 1-200 of Nogo-B, the amino terminus; recombinant, purified, with Myc-His tag
With B1 the “displacement of the binding of 10 nM AP-Am-Nogo-B from transfected CHO cells” value (NgBR [1]) was “dose-dependently displaced”, the “growth rate of tumors in vivo” value (A549 cells [2]; A549 cells secreting Am-Nogo-B versus vector control, immunodeficient mice) was “increased the growth rate of tumors” and the “lymphangiogenesis (LYVE-1 staining)” value (A549 cells [2]; [8]) was “reduced lymphangiogenesis”. For the same molecule, the “tumor angiogenesis (PECAM-1-positive tumor cells)” value (A549 cells [2]; [8]) was “increased angiogenesis”, the “tumor associated macrophages (F4/80 positive cells)” value (A549 cells [2]; [8]) was “increase tumor associated macrophages” and the tube formation (HUVEC [3]) was “stimulated an increase in tube formation”. For the same molecule, the “chemotactic response to soluble Am-Nogo-B” value [4] was “transfection of NgBR was required”, the “basal growth of A549 cells in culture” value (A549 cells [5]) was “did not effect the basal growth” and the “binding to COS cells transfected with the isolated NgBR cDNA” value (NgBR [6]) was “afforded the binding”. The “physical interaction with NgBR-HA (immunopurification)” value (NgBR-HA) was “interacted with lysates only when the receptor was expressed” and the “HUVEC migration, dose dependence” value (HUVEC [7]) was “dose-dependently increases migration”.
